Results on three molecules are retold here after doi:10.1101/2024.06.17.599268 (bioRxiv, 2024).

Sequences and labels used below:
B1: Rab8a_(1-176) (natural protein)
chain: MAKTYDYLFKLLLIGDSGVGKTCVLFRFSEDAFNSTFISTIGIDFKIRTIELDGKRIKLQIWDTAGQERFRTITTAYYRGAMGIMLVYDITNEKSFDNIRNWIRNIEEHASADVEKMILGNKCDVNDKRQVSKERGEKLALDYGIKFMETSAKANINVENAFFTLARDIKAKMDKK
B3: bMERB_(V978A_V985A) (domain or fragment)
chain: KEEEMKRFCKAQTIQRRLNEIEAALRELEAEGVKLELALRRQSSSPEQQKKLWVGQLLQLADKKNSLAAEEAELMITVQELNLEEKQWQLDQELRGYMNREENLKTAADRQAEDQVLRKLVDLVNQRDALIRFQEERRLSELALGTGAQG

One test addresses T1, full-length Mical1 (human, UniProt Q8TDZ2 1-1067).
T1 sequence: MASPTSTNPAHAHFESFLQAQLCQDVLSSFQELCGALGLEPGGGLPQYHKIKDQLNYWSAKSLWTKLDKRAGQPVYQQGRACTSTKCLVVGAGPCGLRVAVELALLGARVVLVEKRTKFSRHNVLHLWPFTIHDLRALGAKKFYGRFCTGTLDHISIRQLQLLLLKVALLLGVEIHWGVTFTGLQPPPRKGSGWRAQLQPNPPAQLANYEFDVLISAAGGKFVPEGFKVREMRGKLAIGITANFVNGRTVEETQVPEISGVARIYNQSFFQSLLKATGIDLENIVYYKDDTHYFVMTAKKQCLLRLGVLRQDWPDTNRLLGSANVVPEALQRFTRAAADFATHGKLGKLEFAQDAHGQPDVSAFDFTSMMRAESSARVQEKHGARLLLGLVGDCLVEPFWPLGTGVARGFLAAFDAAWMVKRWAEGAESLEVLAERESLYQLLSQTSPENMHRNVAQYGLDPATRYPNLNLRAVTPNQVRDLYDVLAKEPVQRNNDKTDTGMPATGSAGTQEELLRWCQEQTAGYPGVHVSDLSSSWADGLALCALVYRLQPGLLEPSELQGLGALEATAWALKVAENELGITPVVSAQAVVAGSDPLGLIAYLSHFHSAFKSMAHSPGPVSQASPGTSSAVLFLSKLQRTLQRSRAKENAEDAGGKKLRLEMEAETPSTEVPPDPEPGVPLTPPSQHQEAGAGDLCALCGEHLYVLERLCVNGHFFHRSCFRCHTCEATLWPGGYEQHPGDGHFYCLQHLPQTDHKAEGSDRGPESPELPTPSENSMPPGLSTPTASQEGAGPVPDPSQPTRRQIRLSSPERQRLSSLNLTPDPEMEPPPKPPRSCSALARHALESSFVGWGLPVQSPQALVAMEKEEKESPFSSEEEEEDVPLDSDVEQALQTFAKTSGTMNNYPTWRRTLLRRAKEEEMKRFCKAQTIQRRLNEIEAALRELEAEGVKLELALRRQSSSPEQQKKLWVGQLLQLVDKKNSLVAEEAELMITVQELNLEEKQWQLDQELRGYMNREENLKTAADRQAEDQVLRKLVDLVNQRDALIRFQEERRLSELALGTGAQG
Put plainly: ITC. On the technique in general: Isothermal titration calorimetry measures the heat released or taken up as one component is titrated into another.

The target of test [1] is T2, Mical1 bMERB domain (residues 918-1067) (human, UniProt Q8TDZ2 918-1067).
T2 sequence: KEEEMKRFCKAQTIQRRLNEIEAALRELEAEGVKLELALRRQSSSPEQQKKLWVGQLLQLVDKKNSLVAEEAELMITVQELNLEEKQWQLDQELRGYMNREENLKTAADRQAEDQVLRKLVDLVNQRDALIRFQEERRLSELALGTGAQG
Kind of test: ITC.

Another test deals with T3, bMERB_(L1047A_F1050A) (human, UniProt Q8TDZ2 918-1067, L1047A | F1050A).
T3 sequence: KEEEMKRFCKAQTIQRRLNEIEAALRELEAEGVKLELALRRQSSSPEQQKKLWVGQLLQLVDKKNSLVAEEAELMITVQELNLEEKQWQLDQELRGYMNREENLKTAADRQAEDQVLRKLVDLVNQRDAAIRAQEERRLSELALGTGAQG
Put plainly: ITC.

For a further test, the target named is T4, bMERB_(M992A_I993A) (human, UniProt Q8TDZ2 918-1067, M992A | I993A).
T4 sequence: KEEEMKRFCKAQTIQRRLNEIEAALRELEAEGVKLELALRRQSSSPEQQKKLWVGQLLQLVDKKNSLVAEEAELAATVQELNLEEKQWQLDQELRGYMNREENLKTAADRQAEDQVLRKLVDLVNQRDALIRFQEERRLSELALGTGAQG
Kind of test: ITC.

The test “bMERB_(V978A_V985A)” deals with B3. Kind of test: ITC.
Test [2] addresses T5, Mical1 MO-CH-LIM (residues 1-781) (human, UniProt Q8TDZ2 1-781).
T5 sequence: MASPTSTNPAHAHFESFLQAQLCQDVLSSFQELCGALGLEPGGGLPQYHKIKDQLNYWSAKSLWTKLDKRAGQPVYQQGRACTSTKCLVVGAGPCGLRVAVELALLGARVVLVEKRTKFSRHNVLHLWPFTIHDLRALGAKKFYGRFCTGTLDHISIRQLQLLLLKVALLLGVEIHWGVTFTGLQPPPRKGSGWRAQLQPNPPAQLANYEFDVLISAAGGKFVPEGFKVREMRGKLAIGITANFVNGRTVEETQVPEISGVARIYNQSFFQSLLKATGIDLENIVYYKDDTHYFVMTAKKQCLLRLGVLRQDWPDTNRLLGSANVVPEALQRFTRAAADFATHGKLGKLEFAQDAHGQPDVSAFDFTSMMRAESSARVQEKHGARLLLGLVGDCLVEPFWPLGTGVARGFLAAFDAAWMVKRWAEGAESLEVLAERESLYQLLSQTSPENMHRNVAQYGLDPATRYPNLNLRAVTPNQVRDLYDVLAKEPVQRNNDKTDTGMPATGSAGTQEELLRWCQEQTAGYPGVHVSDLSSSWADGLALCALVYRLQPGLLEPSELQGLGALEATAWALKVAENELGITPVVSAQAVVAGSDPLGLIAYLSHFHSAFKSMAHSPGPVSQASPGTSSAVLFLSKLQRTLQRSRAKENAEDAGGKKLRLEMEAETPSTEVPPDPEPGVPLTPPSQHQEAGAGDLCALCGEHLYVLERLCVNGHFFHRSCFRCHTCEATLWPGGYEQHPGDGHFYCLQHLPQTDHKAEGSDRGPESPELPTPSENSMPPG
Kind of test: ITC.

The target of test [3] is T6, Rab15_(1-176) (human, UniProt P59190 1-176).
T6 sequence: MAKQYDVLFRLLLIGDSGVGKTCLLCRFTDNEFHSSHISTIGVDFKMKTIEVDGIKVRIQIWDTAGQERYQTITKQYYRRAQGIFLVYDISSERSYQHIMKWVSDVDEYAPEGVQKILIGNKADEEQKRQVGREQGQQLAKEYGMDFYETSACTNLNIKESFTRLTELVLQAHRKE
Put plainly: ITC.

In test [4] the target is T7, Rab10_(1-175) (human, UniProt P61026 1-175).
T7 sequence: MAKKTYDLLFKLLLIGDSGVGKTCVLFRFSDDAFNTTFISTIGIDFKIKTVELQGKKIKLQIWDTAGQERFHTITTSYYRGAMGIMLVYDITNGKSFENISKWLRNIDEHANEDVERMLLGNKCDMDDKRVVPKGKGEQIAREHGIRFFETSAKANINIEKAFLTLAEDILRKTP
Put plainly: ITC.

Test [5] addresses B1. Kind of test: ITC.
For another test, the target named is T8, Rab13_(1-176) (human, UniProt P51153 1-176).
T8 sequence: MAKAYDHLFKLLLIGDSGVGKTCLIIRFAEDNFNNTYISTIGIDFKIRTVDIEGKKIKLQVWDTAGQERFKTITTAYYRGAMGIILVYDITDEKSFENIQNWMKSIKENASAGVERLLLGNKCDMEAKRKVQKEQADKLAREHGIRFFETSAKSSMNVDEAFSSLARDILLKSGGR
Put plainly: SEC. Background: In gel filtration, larger molecules generally elute earlier.

In test [6] the target is T6, Rab15_(1-176). Put plainly: SEC.
Test [7] concerns the target T7, Rab10_(1-175). Kind of test: SEC.
The target in test [8] is B1. Kind of test: SEC.

Turning to B1, the “stoichiometry N” value was 2 in the test with full-length Mical1, 2 in [1] and 1 in the test with bMERB_(V978A_V985A). The “fold decrease in C-terminal (Ct-RBS2) Rab8 binding against wild-type bMERB” value with bMERB_(L1047A_F1050A) is more than 20 fold. For the same molecule, the “fold decrease in N-terminal (Nt-RBS1) Rab binding against wild-type bMERB” value in the test with bMERB_(L1047A_F1050A) was 10 fold; in the test with bMERB_(M992A_I993A), more than 30 fold.

B2: bMERB_(S960D) (domain or fragment)
chain: KEEEMKRFCKAQTIQRRLNEIEAALRELEAEGVKLELALRRQDSSPEQQKKLWVGQLLQLVDKKNSLVAEEAELMITVQELNLEEKQWQLDQELRGYMNREENLKTAADRQAEDQVLRKLVDLVNQRDALIRFQEERRLSELALGTGAQG
As to B2, the binding result (in [2]; with Rab15_(1-176) [3]; in the test with Rab10_(1-175) [4]; in the test with Rab8a_(1-176) [5]) was “binds” in each case.
Take B3: the binding result in the test with Rab13_(1-176), in the test with Rab15_(1-176) [6], in the test with Rab10_(1-175) [7] and with Rab8a_(1-176) [8] was “binds” in each case.

One may read the stoichiometry N as the number of molecules, sites or subunits per partner or assembly.
